Test results from patent US20100075326A1 (CORNELL UNIVERSITY, published 2010).

Key:
[1] = target: T1, Botulinum neurotoxin serotype A light chain protease (BoNT/A-LC), YS2H bait fused to Aga2 with C-terminal … (yeast, UniProt P0DPI0 1-448); experiment: predicted from YS2H (flow cytometry of Myc and FLAG tags, Langmuir equation)
T1 construct: range 1-448

[2] = target: T2, Botulinum neurotoxin serotype A light chain protease (BoNT/A-LC), soluble, hexahistidine tags at both termini (UniProt P0DPI0 1-448); experiment: SPR (Biacore), A-LC injected over B8-coated chip
T2 construct: range 1-448

[3] = target: T2, Botulinum neurotoxin serotype A light …; experiment: SPR (Biacore), A-LC injected over B8-coated chip; remark: listed apart in the source
[4] = target: T2, Botulinum neurotoxin serotype A light …; experiment: SPR (Biacore), G6 compared with B8 on A-LC
[5] = target: T2, Botulinum neurotoxin serotype A light …; experiment: SPR (Biacore), A-LC injected over G6-coated chip
[6] = target: T2, Botulinum neurotoxin serotype A light …; experiment: SPR (Biacore), A-LC injected over G6-coated chip; remark: listed apart in the source

B1: VHH-B8, secreted YS2H prey with C-terminal Myc tag (VHH)
VHH: HVQLQQSGGGLVQPGGSLRLSCAASGSIFSIYAMGWYRQAPGKQRELVAAISSYGSTNYADSVKGRFTISRDNAKNTVYLQMNSLKPEDTAVYYCNADIATMTAVGGFDYWGQGTQVTVSS
Kd [1]: 38.2 nM

B2: VHH-B8, soluble, from E. coli (pET20b) (VHH)
VHH: B1 VHH
Kd [2]: 2.3 nM | koff [3]: 0.000518 s⁻¹ | kon [3]: 226000 M⁻¹ s⁻¹

B3: VHH-G6, secreted YS2H prey with C-terminal Myc tag (VHH)
VHH: HVQLQQSGGGLVQPGGSLRLSCAASGFTLDYYAIGWFRQAPGKEREGVSCISSSGGSTYYADSVKGRFTISRDNAKNTVYLQMNSLKPEDTAVYYCAVAQSCLRGGVRGGYWGQGTQVTVSS
Kd [1]: 143 nM

B4: VHH-G6, soluble, from E. coli (pET20b) (VHH)
VHH: B3 VHH
fold difference in affinity against B8 [4]: 100 fold | fold difference in association rate against B8 [4]: 3 fold | fold difference in dissociation rate against B8 [4]: 34 fold | koff [5]: 0.0182 s⁻¹ | kon [5]: 76100 M⁻¹ s⁻¹ | Kd [6]: 230 nM
